Laboratory results reported in patent US12723078 (University of Texas, dated 2026).

B1: mAb of B cell clone 210 (supernatant) (antibody, V domains shown)
VH: QSVEESEGRLVTPGGSLTLTCTVSGIDLSSYAMGWVRQAPGKGLEWIGVIGKSGTTYYANWAKGRFTISKTSTTVDLQIASPTTEDTATYFCARAGASRSIYYDLWGQGTLVTISS
VL: ELVLTQTPSSKSVAVGDTVTINCQASESVYGNNRCSWYQQKPGQPPKLLIYQASTLASGVPSRFSGSGSGTQFTLTISDVVCDDAATYYCAGHKGTTNDGNDFGGGTEVEIK
notes: rabbit; also called B1-#210
B2: mAb of B cell clone 226 (supernatant) (antibody, V domains shown)
VH: QEQLVESGGGLVQPEGSLTLTCTASGFSFSSRQYISWVRRAPGKGLEWIGAIVTVNNKVHYANWAKGRFTISEASSTTVTLQMTSLTAADTATYFCARWRTFGLWGPGTLVTVSS
VL: ELVLTQTPSSKSVAVGDTVTINCQASENVYSNNYTSWFQQKPGQPPKQLLYYAAYRASGVPSRFKGSGSGTEFTLSISDVVCDDAATYYCSGHKDYSDDGSTFGGGTEVVVK
notes: rabbit
B3: mAb of B cell clone 22 (supernatant) (antibody, V domains shown)
VH: EQSLEESGGGLVKPGASLTLTCKASGFDFSSNDYMCWVRQAPGKGLEWIGCIYGGDGHTYYATWAKGRFTISKASSTTVTLQMTSLTAADTASYFCARGYSYGDTGYADAILTLDLWGPGTLVTVSS
VL: ELDLTQTPASVEAAVGGTVTIKCQASQTIGSYLSWYQQKPGQRPKLLIYEASKLASGVPSWFKGSGSGTEFTLTISDLECADAATYYCQSNYYRAGGNYGGAFGGGTEVEIK
notes: rabbit; also called B1-#22
B4: mAb of B cell clone 7 (supernatant) (antibody, V domains shown)
VH: EQSLEESGGGLVKPGASLTVTCAVSGFSLNSYAITWVRQAPGKGLEYIGYIDTGASITDYASWAKGRFTISKTSSTTVTLEMTSLTDADTATYFCARGFSMFKLWGPGTLVTISS
VL: ELDLTQTPSSVSAAVGGTVTISCQASQSVYGNNRLAWYHQKPGQPPKRLIYLASTLDSGVPSRFKGAGSGTQFTLTISDLECDDAATYYCAGGYAGNFNAFGGGTEVEIK
notes: rabbit; also called B1-#7
B5: mAb of B cell clone 221 (supernatant) (antibody, V domains shown)
VH: QSLEESGGDLVKPGASLTLTCTASGFSFSSSYYMCWVRQAPGKGLEWIACIYGGSTGTTYYASWAKGRFTISKTSSTTVTLQMTSLTGADTATYFCARSYNSASSGYYWDLWGPGTLVTVSS
VL: ELDLTQTPSSVEAAVGGTVTIKCQASQSIGSNLAWYQQKPGQPPKVLIYKASTLASGVPSRFKGSGSGTQFTLTISDLECADAATYYCQNNNYWSNGNHFGGGTEVVVK
notes: rabbit
B6: mAb of B cell clone 190 (supernatant) (antibody, V domains shown)
VH: QEQLKESGGDLVKPEGSLTLTCTASGFSFSSDYWVCWVRQAPGKGPEWIGCIYTGDDDTYYASWAKGRFTISKTSSTTVTLEVTSLTAADTATYFCARGLTIGTAELYFWGPGTVVTVSS
VL: ELVLTQTPSPVSAAVGGTVTINCQASQSISNELSWYQQKPGQPPKLLIYLASTLDSGVPSRFKGSGSGTQFTLTISDLECADAATYYCQSHYYGGSSDYGWAFGGGTEVVVK
notes: rabbit; also called B1-#190
B7: mAb of B cell clone 25 (supernatant) (antibody, V domains shown)
VH: EQSVKESGGGLVQPEGSLTLTCKVSGIDFNYYNYYYMCWVRQAPGKGLEWIGCMSTASANIYLASWAKGRFTISEASSTTVTLQMTSLTAADTATYFCAKSHGGDGGYGVVLWGPGTLVTISS
VL: ELDLTQTPFSVSAAVGGTVTIKCQASETISNRLAWYQQKPGQPPKLLIYSASTLESGVPSRFKGSGSGTEFTLTISDLECADAATYYCQSIRSSSGIVHPNTFGGGTEVEIK
notes: rabbit; also called B1-#25
B8: mAb of B cell clone 202 (supernatant) (antibody, V domains shown)
VH: SQSLEESGGGLVKPGASLTLTCKGSGFSFNGDYYMCWVRQTPGKGLEWIGCIYAAGDDTYYATWAKGRFTISKTSSTTVTLQMTSLTAADTATYFCARDQADSYAFGLWGPGTLVTISS
VL: ELVLTQTASPVSGAVGGTVTIKCQASQNIYSNLAWYQQKPGQPPKLLIYSASKLASGVPSRFKGSGSGTEYTLTISGVQCEDAATYYCQSYYYTASADTTFGGGTEVEIK
notes: rabbit
B9: mAb of B cell clone 19 (supernatant) (antibody, V domains shown)
VH: EQSVEESGGGLVKPEGSLTLTCKASGLDFSSSYWSCWVRQTPGRGLEWIGCIDVGSSGGSYYASWARGRFTVSKGSSTTVTLQMTSLTAADTATYFCASTTTNVFGYDLWGPGTLVTVSS
VL: ELDLTQTPASVSEPVGGTVTIKCQASQNIYNNLAWYQQKPGQPPKLLIYYASTLASGVPPRFSGSGSGTEYTLTISDLECDDAATYYCQNNAGIYGGYGHGFGGGTEVVVK
notes: rabbit; also called B1-#19
B10: mAb of B cell clone 18 (supernatant) (antibody, V domains shown)
VH: EQSVKESGGGLVKPGGTLTLTCIVSGFSLSRYAVTWVRQAPGKGPEWIGYIDTSSGNKDYANWVNGRFTISKTSSTTVTLQMTSLTAADTATYFCARGFSMFKLWGPGTLVTISS
VL: ELVMTQTPSSVSAAVGGTVTISCQASQSVYNNNNLAWYQQKPGQPPKRLIYSASTLDSGVPSRFSGSGSGTQFTLTISDLECDDAATYYCAGGYTYNINIFGGGTEVEIK
notes: rabbit; also called B1-#18
B11: mAb of B cell clone 38 (supernatant) (antibody, V domains shown)
VH: EQSVEESEGGLVQPEGSLTLTCTASGFSFSNDYWICWVRQAPGKGLEWIGCGHIGSFRTTYYASWAKGRFSISKTSSTTVTLQMTSLTGADTATYFCARSPYDDGYGGFTFNLWGPGTLVTISS
VL: ELDMTQTPSSVEAAVGGTVTVKCQVSQSIGNAIAWYQQKPGQPPKLLIYKASTLASGVPSRFKGSGSGTEFTLTISDLECADAATYYCQNYYYSNTNSFGGGTEVVVK
notes: rabbit; also called B1-#38
B12: mAb of B cell clone 224 (supernatant) (antibody, V domains shown)
VH: EQSVEESGGGLVQPEGSLTLTCTASGIDFSSGAWICWVRQAPGKGLELIACIFTTSGFTYYASWAKGRFTISKTSSTTVTLQMTSLTAADTATYFCARDIYSYGMDLWGPGTLVTISS
VL: ELVLTQTPSSVSEPVGGTVTIKCQASQSISSSYLAWYQQKPGQPPKFLIYSASTLASGVPSRFKGSGSGTEFTLTISDLECADAATYYCQSTYISSSNYGAAFGGGTEVEIK
notes: rabbit
B13: mAb of B cell clone 5 (supernatant) (antibody, V domains shown)
VH: EQSLEESGGDLVKPEGSLTLTCTASELSFSSAYYMCWVRQAPGKGLEWIGCIYSGDGDTYYANWAKGRFTISKTSSTTVTLQMTSLTDADTATYFCARALDSHYSSFDLWGPGTLVTISS
VL: ELDMTQTPSSVSAAVGDTVTIKCQASQSIYRYLAWYQQKPGQRPSLLIYYGSDLASGVPSRFSGSGSGTEFTLTISDLECADAASYYCQTTYDDYHNGWAFGGGTNVEIN
notes: rabbit; also called B1-#5
B14: mAb of B cell clone 28 (supernatant) (antibody, V domains shown)
VH: EQSLEESGGGLVKPGASLTLTCKASGFSFSSDYDMCWVRQAPGKGLEWIGCIVTGFSGRIYYATWARGRFTFSRTSSTTLTLQMTSLTAADTATYFCARDSGNYNWDLWGPGTLVTISS
VL: ELDLTQTPTSVSAAVGGTVTIKCQASQSISDYLSWYQQKPGQPPKLLIYRASTLASGVPSRFKGSGSGTEFTLTISDLECADAATYYCQSNYYGSQGCTFGGGTEVEIK
notes: rabbit; also called B1-#28
B15: mAb of B cell clone 15 (supernatant) (antibody, V domains shown)
VH: EQSVEESGGDLVKPGASLTLTCTASGFSSSSSAYMCWVRQAPGKGLEWIACIFIGSGSDSYYATWAKGRFTISKTSSTTVTLQMTSLTAADTATYFCARNTYDWNGYIYGPCYFGLWGPGTLVTISS
VL: ELDLTQTPSSVEAAVGGTVTIKCQASQSIYNYLAWYQQKPGHSPKLLIYDVSKLASGVSSRFKGSGSGTEFTLTISDLECADAATYYCQSYYGNTVSFTFGGGTEVEIK
notes: rabbit; also called B1-#15
B16: mAb of B cell clone 196 (supernatant) (antibody, V domains shown)
VH: QEQLVESGGGLVQPEGSLTLTCTDSGFSFTKNYYMCWVRQAPGKGLEWIGCIYAGSTNTFYASWAKGRFTISKASSTTVDLKMTSLTVADTATYFCARDFVSYLNLWGPGTLVTVSS
VL: ELDMTQTPSSTSAAVGGTVTIKCQASQSVYNNNQLSWFQQKPGQPPKRLIYGASTLESGVPSRFSGSGSGTQFTLTISDLECDDAATYYCQGAVSSDYYPFGGGTEVEIK
notes: rabbit
B17: mAb of B cell clone 220 (supernatant) (antibody, V domains shown)
VH: QSVEESGGGLVQPEGSLTLTCTASGFSFSGIVYMCWVRQAPGKGLEWIACAFVGSGGSTYYATWATGRFTISKTSSTTVTLQMTSLTAADTATYFCAKSYNYNGLGLWGPGTLVTVSS
VL: ELDMTQTPASVSAAVGGTVTIKCQASQSITNALAWYQQKPGQPPKLLIYRASTLASGVSSRFKGSGSGTEFTLTISDLECADAATYYCQCSYYGSTYFGSPFGGGTEVEIK
notes: rabbit; also called B1-#220
B18: mAb of B cell clone 27 (supernatant) (antibody, V domains shown)
VH: EQSVKESGGGLVQPEGSLTLTCTVSGFSFSGSYWICWVRQAPGKGLEWIACIYGDSIATYYPNWAKGRFTISKTSSTTVTLQMASLTGADTATYFCARDRNGGSGAYGWDLWGPGTLVTISS
VL: ELDLTQTPASVSEPVGGTVTITCQASQSISSYLSWYQQTPGQPPKLLIYKASTLASGVPSRFKGSGSGTEFTLTISDLECADAATYYCQSYYYISATVDNTFGGGTEVEIK
notes: rabbit; also called B1-#27
B19: mAb of B cell clone 209 (supernatant) (antibody, V domains shown)
VH: SQSVEESGGDLVKPGGTLTLTCTASRIDLNNYYYISWVRQAPGKGLEWIGVVATDSSVTWYASWAKGQFTISKTSSTTVTLQMTSLTAADTATYFCARGSGAATNGVWWVMGDGMDLWGPGTLVTVSS
VL: ELVMTQTPASVSEPVGGTVTIKCQASQSISSYLSWYQQKPGQPPKRLIYKASTLASGVPSRFKGSGSGTEFTLTISGVQCADAATYYCQNNYHSGSSNGGGFAFGGGTEVEIK
notes: rabbit
B20: mAb of B cell clone 10 (supernatant) (antibody, V domains shown)
VH: EQSVEESGGGLVKPEGSLTLTCKASGLDFSSSYWICWVRQAPGKGLEWIACIDTGSSGSTYYASWAKGRFTVSKTSSTTVSLQMTSLTAADTATYFCASTPNSLGYDLWGPGTLVTISS
VL: ELDLTQTPASVSAAVGGTVTIKCQASQNIVSNLAWYQQKPGQRPKLLIYYASTLASGVPSRFKGSGSGTEYTLTISDLECADAATYYCQNNAGIYGNYGHGFGGGTELEIK
notes: rabbit; also called B1-#10
B21: mAb of B cell clone 203 (supernatant) (antibody, V domains shown)
VH: QSLKESEGDLVKPGASLTLTCTASGFSFSSSYWICWVRQAPGKGLEWIACIYAGSSGSTYYASWAKGRFTISKTSSTTVTLEMTSLTDADTATYFCARGFSMFKLWGPGTLVTISS
VL: ELVLTQTPSSVEAAVGGTVTIKCQASQSIGSYLAWYQQKPGQPPKLLIYKASTLSSGVSSRYKGSGSGTEFTLTISDLECDDAATYYCQYTSYSSGGAFGGGTEVVVK
notes: rabbit
B22: mAb of B cell clone 198 (supernatant) (antibody, V domains shown)
VH: QSLEESGGGLVKPEGSLTLTCTASGFDLSNNYYICWVRQAPGKGLELIACVDSDLTDSADYASWAKGRFTISKTSSTTVTLQMTSLTAADTATYFCAGSGSGYYYYYGMDLWGPGTLVTISS
VL: ELDMTQTPASVSEPVGGTVTIKCQASQSIGSYLAWYQQKPGQPPKLLAFYASTLKSGVPPRFKGSGSGTEFTLTISDLECADAATYYCQSNRLSSSDVNAFGGGTEVEIK
notes: rabbit

Each binder was assayed against T1, human LILRB1 recombinant protein (human, UniProt Q8NHL6 24-461) (assay: ELISA, B cell supernatant).
T1 construct: The ELISA method says only 'LILRB1 recombinant proteins' coated on plates; also called leukocyte immunoglobulin-like receptor subfamily B member 1
T1 sequence (Q8NHL6 24-461 limits assumed): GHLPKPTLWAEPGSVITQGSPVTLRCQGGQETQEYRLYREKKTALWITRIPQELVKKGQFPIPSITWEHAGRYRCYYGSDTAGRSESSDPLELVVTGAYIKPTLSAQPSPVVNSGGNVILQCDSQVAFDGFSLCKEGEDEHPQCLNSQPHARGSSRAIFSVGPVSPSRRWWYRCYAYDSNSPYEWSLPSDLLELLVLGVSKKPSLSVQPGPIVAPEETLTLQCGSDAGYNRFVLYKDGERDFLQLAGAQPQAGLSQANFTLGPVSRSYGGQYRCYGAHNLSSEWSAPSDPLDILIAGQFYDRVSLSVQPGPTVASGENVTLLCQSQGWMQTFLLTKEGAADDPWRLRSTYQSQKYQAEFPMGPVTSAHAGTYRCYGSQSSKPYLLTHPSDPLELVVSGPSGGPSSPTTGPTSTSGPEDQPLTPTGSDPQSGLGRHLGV

Row | OD450 | Binder
1 | 1.75 OD450 | B1
2 | 2.38 OD450 | B2
3 | 1.84 OD450 | B3
4 | 2.4 OD450 | B4
5 | 1.64 OD450 | B5
6 | 1.9 OD450 | B6
7 | 2.3 OD450 | B7
8 | 1.95 OD450 | B8
9 | 2.32 OD450 | B9
10 | 2.41 OD450 | B10
11 | 2.32 OD450 | B11
12 | 2.09 OD450 | B12
13 | 2.27 OD450 | B13
14 | 2.27 OD450 | B14
15 | 2.5 OD450 | B15
16 | 2.27 OD450 | B16
17 | 2.24 OD450 | B17
18 | 2.56 OD450 | B18
19 | 2.18 OD450 | B19
20 | 2.17 OD450 | B20
21 | 1.75 OD450 | B21
22 | 2.28 OD450 | B22
